Data as given in patent US20050182242A1, “Global analysis of protein activities using proteome chips” (priority 2001, published 2005).

Legend:
Conditions in all cases: liposome binding signal on yeast proteome chip, Cy3-streptavidin detection
PI(4)P liposomes = assay: Yeast proteome chip probed with PI(4)P liposomes
Source text: (§1) To identify PI-binding proteins in yeast, liposomes were used as probes because the liposome provides the most relevant physiological condition to assay the interactors. Six types of liposomes were used. Each contains phosphatidylcholine (“PC”) with 1% (w/w) N-(biotinoyl)-1,2-dihexadecanoyl-sn-glycero-3-phosphoethanolamine, triethylammonium salt (biotin DHPE). The biotinylated lipid serves as a label that can be detected by Cy3-streptavidin (21). In addition to PC, the five other liposomes contain either 5% (w/w) PI(3)P, PI(4)P, PI(3,4)P2, PI(4,5)P2, or PI(3,4,5)P3 (FIG. 3A).
(§2) The protein-liposome interaction was assayed as follows. Appropriate amounts of each lipid in chloroform were mixed and dried under nitrogen. The lipid mixture was resuspended in TBS buffer by vortexing. The liposomes were created by sonication. Blocked proteome chips were washed three to five times in PBS buffer, and the extra liquid on the glass surface was removed by tapping the slides vertically on a KIMWIPE™. 200 μl of liposome solution was added to the proteome chip and immediately covered by a hydrophobic plastic cover slip (GRACE BIO-LAB™, USA). After trapped air bubbles were removed, the chip was incubated in a humidity chamber at RT for one hour. To remove the cover slip, the chip was immersed into large volume of PBS buffer (50 ml), so that the slip would float away. The chip was then moved to a second PBS bath (>50 ml) and washed 3×5 min with shaking at RT. After removing extra liquid on the surface of the chip, about 100 μl of Cy3 or Cy5 conjugated streptavidin (PIERCE™, USA; 1:2000 to 1:4000 dilution) was added to the surface and covered by a hydrophobic plastic cover slip (GRACE BIO-LABS™, USA). The chip was incubated for greater than 30 min in the dark at RT. The chip was then washed as described above. To completely remove the liquid on the chip, the chip was spun to dryness at 1500-2000 rpm for 5-10 min at RT.
(§3) • 1. S. Fields, Y. Kohara, D. J. Lockhart, Proc. Natl. Acad. Sci. 96, 8825 (1999); A. Goffeau et al., Science 274, 563 (1996). • 2 P. Ross-Macdonald et al., Nature 402, 413 (1999); J. L., DeRisi, V. R. Iyer, P. O. Brown, Science 278, 680 (1997); E. A. Winzeler et al., Science 285, 901 (1999). P. Uetz et al., Nature 403, 623 (2000); T. Ito et al., Proc. Natl. Acad. Sci. USA. 97, 1143 (2000) • 3 H. Zhu, M. Snyder, Curr. Opin. Chem. Biol. 5, 40 (2001). • 4 M. R. Martzen et al., Science 286, 1153 (1999). • 5 H. Zhu et al., Nat. Genet. 26, 283 (2000). • 6 G. MacBeath, S. L. Schreiber, Science 289, 1760 (2000). • 7 A. Caveman, J. Cell Sci. 113, 3543 (2000). • 8 P. Arenkov et al., Anal. Biochem 278, 123 (2000). • 9 D. A. Mitchell, T. K. Marshall, R. J. Deschenes, Yeast 9, 715 (1993). The expression vector pEGH was created by inserting an RGS-HisX6 epitope tag between the GST gene and the polycloning site of pEG(KG). The yeast ORFs were cloned using the strategy described previously (5), except every step was done in a 96-well format. Plasmid DNAs confirmed by DNA sequencing were reintroduced into both yeast (Y258) and E. coli (DH5a). […] 0.1 mM calcium was present in buffers in all subsequent steps. The chip was washed three times with PBS at RT. Cy3-conjugated streptavidin (Jackson IR, USA) (1:5000 dilution) was added to the chip and incubated for 30 min at RT. After extensive washing, the chip was spun dry and scanned using a microarray scanner; the data was subsequently acquired with the GENEPIX™ array densitometry software (Axon, USA). • 12 S. S. Hook, A. R. Means, Annu. Rev. Pharmacol. Toxicol.41, 471 (2001). • 13 M. S. Cyert, R. Kunisawa, D. Kaim, J. Thorner, Proc. Natl. Acad. Sci. USA 88, 7376 (1991). • 14 D. A. Stirling, K. A. Welch, M. J. Stark, EMBO J. 13, 4329 (1994). • 15 F. Bohl, Kruse, EMBO J. 19, 5514 (2000); E. Bertrand et al., Mol. Cell 2, 437 (1998). • 16 D. C. Winter, E. Y. Choe, R. Li, Proc. Nat. Acad Sci. USA 96, 7288 (1999). • 17 C.

PI(4,5)P2 liposomes = assay: Yeast proteome chip probed with PI(4,5)P2 liposomes
Source text: as §1, §2, §3

PI(3,4)P2 liposomes = assay: Yeast proteome chip probed with PI(3,4)P2 liposomes
Source text: as §1, §2, §3

PI(3,4,5)P3 liposomes = assay: Yeast proteome chip probed with PI(3,4,5)P3 liposomes
Source text: as §1, §2, §3

[1] = system: phosphatidylcholine (PC) liposomes; assay: Yeast proteome chip probed with PC liposomes
Source text: as §1, §2, §3

Row | Molecule | PI(4)P (PI(4)P liposomes) | PI(4, 5)P2 (PI(4,5)P2 liposomes) | PI(3, 4)P2 (PI(3,4)P2 liposomes) | PI(3, 4, 5)P3 (PI(3,4,5)P3 liposomes) | PC [1]
1 | RTG3: yeast GST-HisX6 fusion protein on proteome chip (protein, UniProt P38165 1-486, looked up, GST-His6 tag, yeast GST-HisX6 fusion protein on proteome chip) Retrograde regulation protein …: MMNNNESEAENQRLLDELMNQTKVLQETLDFSLVTPTPHHNDDYKIHGSAYPGGETPAQQHEKLSYINTHNSNDNNNLMGSQARSNSQTPTASTIYEEAESQSSYLDDMFRTSQGGRPVTQNSISSIGQGPLRSSYSMAYDSPVDRAMNTPLQQQEGLKAELPHDFLFQHGTDDTMYNLTDDLSSSLSSSINSDMMTPNTYSSSFSYNPQSLGPASVSSTYSPKVRSPSSSFRAGSFLSSSFRHGSINTPRTRHTSISSNMTENIGPGSVPKILGGLTSDEKLRRKREFHNAVERRRRELIKQKIKELGQLVPPSLLNYDDLGKQIKPNKGIILDRTVEYLQYLAEILEIQARKKKALLAKIKELEEKKSSVAALSPFTNNHHASSGQNNSENSEERIIDIRSVPNALMNEQNSKAELHNWEPPLYDSVGNHNHAGTMESHPHTNIHEELKEFLSGDLIEAEDNAKLMFGDDNSNPADYLLEFGSG | 12.19 | 12.41 | 0.16 | −5.29 | 5.58
2 | BPL1: yeast GST-HisX6 fusion protein on proteome chip (protein, UniProt P48445 1-690, looked up, GST-HisX6 tag, yeast GST-HisX6 fusion protein on proteome chip) Biotin--protein ligase: MNVLVYNGPGTTPGSVKHAVESLRDFLEPYYAVSTVNVKVLQTEPWMSKTSAVVFPGGADLPYVQACQPIISRLKHFVSKQGGVFIGFCAGGYFGTSRVEFAQGDPTMEVSGSRDLRFFPGTSRGPAYNGFQYNSEAGARAVKLNLPDGSQFSTYFNGGAVFVDADKFDNVEILATYAEHPDVPSSDSGKGQSENPAAVVLCTVGRGKVLLTGPHPEFNVRFMRKSTDKHFLETVVENLKAQEIMRLKFMRTVLTKTGLNCNNDFNYVRAPNLTPLFMASAPNKRNYLQEMENNLAHHGMHANNVELCSELNAETDSFQFYRGYRASYDAASSSLLHKEPDEVPKTVIFPGVDEDIPPFQYTPNFDMKEYFKYLNVQNTIGSLLLYGEVVTSTSTILNNNKSLLSSIPESTLLHVGTIQVSGRGRGGNTWINPKGVCASTAVVTMPLQSPVTNRNISVVFVQYLSMLAYCKAILSYAPGFSDIPVRIKWPNDLYALSPTYYKRKNLKLVNTGFEHTKLPLGDIEPAYLKISGLLVNTHFINNKYCLLLGCGINLTSDGPTTSLQTWIDILNEERQQLHLDLLPAIKAEKLQALYMNNLEVILKQFINYGAAEILPSYYELWLHSNQIVTLPDHGNTQAMITGITEDYGLLIAKELVSGSSTQFTGNVYNLQPDGNTFDIFKSLIAKKVQS | 25.26 | 22.21 | 6.59 | 8.77 | 5.28
3 | GFA1: yeast GST-HisX6 fusion protein on proteome chip (protein, UniProt P14742 2-717, looked up, GST-His6 tag, yeast GST-HisX6 fusion protein on proteome chip) Glutamine--fructose-6-phosphat …: CGIFGYCNYLVERSRGEIIDTLVDGLQRLEYRGYDSTGIAIDGDEADSTFIYKQIGKVSALKEEITKQNPNRDVTFVSHCGIAHTRWATHGRPEQVNCHPQRSDPEDQFVVVHNGIITNFRELKTLLINKGYKFESDTDTECIAKLYLHLYNTNLQNGHDLDFHELTKLVLLELEGSYGLLCKSCHYPNEVIATRKGSPLLIGVKSEKKLKVDFVDVEFPEENAGQPEIPLKSNNKSFGLGPKKAREFEAGSQNANLLPIAANEFNLRHSQSRAFLSEDGSPTPVEFFVSSDAASVVKHTKKVLFLEDDDLAHIYDGELHIHRSRREVGASMTRSIQTLEMELAQIMKGPYDHFMQKEIYEQPESTFNTMRGRIDYENNKVILGGLKAWLPVVRRARRLIMIACGTSYHSCLATRAIFEELSDIPVSVELASDFLDRKCPVFRDDVCVFVSQSGETADTMLALNYCLERGALTVGIVNSVGSSISRVTHCGVHINAGPEIGVASTKAYTSQYIALVMFALSLSDDRVSKIDRRIEIIQGLKLIPGQIKQVLKLEPRIKKLCATELKDQKSLLLLGRGYQFAAALEGALKIKEISYMHSEGVLAGELKHGVLALVDENLPIIAFGTRDSLFPKVVSSIEQVTARKGHPIIICNENDEVWAQKSKSIDLQTLEVPQTVDCLQGLINIIPLQLMSYWLAVNKGIDVDFPRNLAKSVTVE | 3.05 | −7.62 | −8.63 | −6.53 | −1.76
4 | YER046W: yeast GST-HisX6 fusion protein on proteome chip (protein, UniProt P40031 1-143, looked up, GST-His6 tag, yeast GST-HisX6 fusion protein on proteome chip) Sporulation-specific protein …: MGKNHFLKDFSALPEDVLIENERGITLLGYPLFSPKILLPHVDPPQFQRLNTENGSLIALSKNTISNFIELYPIDLSTERTAGSSSSQMTKWFVLMDYKEKYDIDDQGWCYSWNFNNSRWKSKNGLVRRRVWVRLPTTSHGLD | 19.16 | 6.31 | 11.62 | 5.62 | −18.20
5 | PAT1: yeast GST-HisX6 fusion protein on proteome chip (protein, UniProt P25644 2-796, looked up, GST-HisX6 tag, yeast GST-HisX6 fusion protein on proteome chip) Deadenylation-dependent …: SFFGLENSGNARDGPLDFEESYKGYGEHELEENDYLNDETFGDNVQVGTDFDFGNPHSSGSSGNAIGGNGVGATARSYVAATAEGISGPRTDGTAAAGPLDLKPMESLWSTAPPPAMAPSPQSTMAPAPAPQQMAPLQPILSMQDLERQQRQMQQQFMNFHAMGHPQGLPQGPPQQQFPMQPASGQPGPSQFAPPPPPPGVNVNMNQMPMGPVQVPVQASPSPIGMSNTPSPGPVVGATKMPLQSGRRSKRDLSPEEQRRLQIRHAKVEKILKYSGLMTPRDKDFITRYQLSQIVTEDPYNEDFYFQVYKIIQRGGITSESNKGLIARAYLEHSGHRLGGRYKRTDIALQRMQSQVEKAVTVAKERPSKLKDQQAAAGNSSQDNKQANTVLGKISSTLNSKNPRRQLQIPRQQPSDPDALKDVTDSLTNVDLASSGSSSTGSSAAAVASKQRRRSSYAFNNGNGATNLNKSGGKKFILELIETVYEEILDLEANLRNGQQTDSTAMWEALHIDDSSYDVNPFISMLSFDKGIKIMPRIFNFLDKQQKLKILQKIFNELSHLQIIILSSYKTTPKPTLTQLKKVDLFQMIILKIIVSFLSNNSNFIEIMGLLLQLIRNNNVSFLTTSKIGLNLITILISRAALIKQDSSRSNILSSPEISTWNEIYDKLFTSLESKIQLIFPPREYNDHIMRLQNDKFMDEAYIWQFLASLALSGKLNHQRIIIDEVRDEIFATINEAETLQKKEKELSVLPQRSQELDTELKSIIYNKEKLYQDLNLFLNVMGLVYRDGEISELK | 158.95 | 66.63 | 10.05 | 56.47 | 160.24
